Laboratory results taken from article PMC2744858.

Key:
14-3-3ζ = 14-3-3ζ (UniProt P63104); experiment: PACS-2 co-immunoprecipitation, 14-3-3ζ-myc western blot; details: reference: wild-type HA-PACS-2; sites S437
14-3-3σ = 14-3-3σ (UniProt P31947); experiment: GST pull-down, 14-3-3σ-His6 western blot; details: reference: wild-type GST-PACS-2MR; sites S437

| binding against the reference (14-3-3ζ) | binding against the reference (14-3-3σ) | Substance |
| --- | --- | --- |
| lost |  | PACS-2 (from UniProt Q86VP3) PACS-2 S437A |
|  | lost | PACS-2 middle region (MR) (from UniProt Q86VP3) S437A |
